According to patent publication US20250289905A1 (MIRIMGENE, published 2025):

Tests used:
[1] = biological target: marmoset (NHP)-derived WARS1 recombinant protein (marmoset (NHP)) (UniProt U3CR73); experiment: direct ELISA
[2] = biological target: T1, human WARS1 recombinant protein (human, UniProt P23381 2-471, limits assumed); experiment: direct ELISA
T1 construct: Recombinant protein, detected with an anti-His tag antibody; In the western blot also secreted WARS1 from THP-1 supernatant and human serum; also called human-derived WARS1 recombinant protein
T1 sequence: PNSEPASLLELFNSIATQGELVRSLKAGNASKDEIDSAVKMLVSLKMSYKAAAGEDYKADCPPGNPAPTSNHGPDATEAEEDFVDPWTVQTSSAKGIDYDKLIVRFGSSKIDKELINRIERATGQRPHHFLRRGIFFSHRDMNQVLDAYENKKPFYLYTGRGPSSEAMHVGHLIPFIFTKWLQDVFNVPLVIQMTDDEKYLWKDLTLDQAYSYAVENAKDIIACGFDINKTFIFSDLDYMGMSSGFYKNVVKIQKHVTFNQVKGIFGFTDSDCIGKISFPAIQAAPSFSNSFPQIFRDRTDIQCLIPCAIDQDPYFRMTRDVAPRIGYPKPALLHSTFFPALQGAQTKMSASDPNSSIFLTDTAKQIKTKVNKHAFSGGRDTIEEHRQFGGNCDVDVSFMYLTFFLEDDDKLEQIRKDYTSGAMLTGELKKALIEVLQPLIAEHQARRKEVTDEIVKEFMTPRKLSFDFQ
Experimental: (§1) Specifically, for direct ELISA, a 96-well plate (Maxisorp, Thermo Fisher) was coated with WARS1 having a 1 μg/ml concentration of a recombinant protein derived from human, marmoset (NHP), mouse, rat, and pig, and then blocked with PBS containing 1% BSA at room temperature for 1 hour. The GKB101 antibody or a variant antibody thereof was diluted in a concentration-dependent manner, added to each coated well, reacted at room temperature for 1 hour, and then washed four times with PBST (PBS+Tween20). Each well was treated and reacted for 1 hour with an antibody (anti-Human IgG, cell signaling) to which HRP is attached, and then washed with PBST. Lastly, after developing with a TMB substrate (BD), its absorbance was measured at 490 nm (NIVO) (FIGS. 4a to 5).

[3] = biological target: T2, mouse-derived WARS1 recombinant protein (mouse, UniProt P32921 1-481, limits assumed); experiment: direct ELISA
T2 construct: Recombinant, His-tagged (detected with anti-His tag antibody); construct not described; In the western blot also secreted WARS1 from J774A.1 supernatant and mouse serum; also called mouse WARS1
T2 sequence (looked up): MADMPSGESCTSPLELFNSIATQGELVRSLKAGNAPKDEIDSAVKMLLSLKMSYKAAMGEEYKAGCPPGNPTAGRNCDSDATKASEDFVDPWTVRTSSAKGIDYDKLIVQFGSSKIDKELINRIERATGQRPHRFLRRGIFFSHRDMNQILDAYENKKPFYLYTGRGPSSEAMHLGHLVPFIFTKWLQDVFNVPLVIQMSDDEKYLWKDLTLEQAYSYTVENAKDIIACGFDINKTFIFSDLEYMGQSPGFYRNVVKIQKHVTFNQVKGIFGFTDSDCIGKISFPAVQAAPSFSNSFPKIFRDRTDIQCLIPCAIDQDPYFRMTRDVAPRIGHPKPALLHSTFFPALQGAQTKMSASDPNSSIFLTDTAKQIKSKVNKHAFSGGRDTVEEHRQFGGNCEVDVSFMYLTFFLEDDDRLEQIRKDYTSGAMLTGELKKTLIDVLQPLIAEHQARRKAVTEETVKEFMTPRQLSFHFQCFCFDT
Experimental: as §1

[4] = biological target: T3, rat-derived WARS1 recombinant protein (rat, UniProt Q6P7B0 1-481, limits assumed); experiment: direct ELISA
T3 construct: Recombinant, His-tagged (detected with anti-His tag antibody); construct not described; also called rat WARS1
T3 sequence (looked up): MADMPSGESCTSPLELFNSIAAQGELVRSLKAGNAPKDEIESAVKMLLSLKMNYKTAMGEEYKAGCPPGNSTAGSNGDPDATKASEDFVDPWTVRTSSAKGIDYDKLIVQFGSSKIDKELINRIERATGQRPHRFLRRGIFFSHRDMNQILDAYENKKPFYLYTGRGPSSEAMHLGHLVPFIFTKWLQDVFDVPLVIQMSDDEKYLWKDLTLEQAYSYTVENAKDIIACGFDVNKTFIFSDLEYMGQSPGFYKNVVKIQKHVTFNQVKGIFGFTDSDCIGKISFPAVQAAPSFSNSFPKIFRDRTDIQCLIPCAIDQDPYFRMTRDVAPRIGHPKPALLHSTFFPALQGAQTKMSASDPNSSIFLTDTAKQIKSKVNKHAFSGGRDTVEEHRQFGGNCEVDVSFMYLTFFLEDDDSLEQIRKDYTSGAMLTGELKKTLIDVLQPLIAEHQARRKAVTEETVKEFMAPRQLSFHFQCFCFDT
Experimental: as §1

[5] = biological target: T1, human WARS1 recombinant protein; experiment: cell-based or functional assay

B1: SHL/QLN (antibody, V domains shown)
VH: EVQLLESGGGLVQPGGSLRLSCAASGFTFSSYDMSWVRQAPGKGLEWVSAISSGGSSIYYADSVKGRFTISRDNSKNTLYLQMNSLRAEDTAVYYCARDVAWDMLGDFDYWGQGTLVTVSS
VL: QSVLTQPPSASGTPGQRVTISCTGSSSNIGSNYVYWYQQLPGTAPKLLIYANQLRPSGVPDRFSGSKSGTSASLAISGLRSEDEADYYCGAWDDSNSAYVFGGGTKLTVLT
notes: L-CDR2 and L-CDR3 variant of GKB101; also called SHL/QLN antibody
[1]
  Kd: 1 pM
[2]
  Kd: ~1 pM
[3]
  Kd: ~1 pM
[4]
  Kd: ~1 pM
[5]
  secretion of TNF-α in mouse macrophage J774A.1 cells: ≥ 40%
